Measured values reported in publication PMC5240932, “The Nuclear Receptor HIZR-1 Uses Zinc as a Ligand to Mediate Homeostasis in Response to High Zinc”.
Positions count from the first letter of the chain named.

Assays:
HIZR-1 R63C = target: T1, HIZR-1 R63C (Caenorhabditis elegans, UniProt G5ED47 1-412, R63C); assay: EMSA; legend: not bound; text: dramatically reduced; Licor Odyssey EMSA Buffer Kit per manufacturer; buffer composition, salt, pH and temperature not stated; settings: protein: recombinant; tags: N-terminal 6xHis (pTrcHisA); label: IRDye700
T1 sequence: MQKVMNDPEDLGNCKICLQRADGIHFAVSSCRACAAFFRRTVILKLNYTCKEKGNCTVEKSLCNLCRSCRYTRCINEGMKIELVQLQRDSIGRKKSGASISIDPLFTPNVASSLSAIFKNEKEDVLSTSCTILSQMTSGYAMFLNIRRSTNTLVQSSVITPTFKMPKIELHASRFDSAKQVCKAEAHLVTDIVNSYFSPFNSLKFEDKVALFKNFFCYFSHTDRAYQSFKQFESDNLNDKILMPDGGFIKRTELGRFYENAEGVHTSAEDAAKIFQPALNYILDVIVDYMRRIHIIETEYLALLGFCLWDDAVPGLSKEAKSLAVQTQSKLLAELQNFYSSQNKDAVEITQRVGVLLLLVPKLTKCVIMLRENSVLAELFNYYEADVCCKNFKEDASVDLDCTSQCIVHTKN

HIZR-1 G23E = target: T2, HIZR-1 G23E (Caenorhabditis elegans, UniProt G5ED47 1-412, G23E); assay: as above; settings: protein: recombinant; tags: N-terminal 6xHis (pTrcHisA); label: IRDye700
T2 sequence: T1 sequence with G23E, C63R

HIZR-1 WT [1] = target: T3, HIZR-1 WT (Caenorhabditis elegans, UniProt G5ED47 1-412); assay: EMSA; apparent Kd; constant protein, variable labeled DNA; Licor Odyssey EMSA Buffer Kit per manufacturer; buffer composition, salt, pH and temperature not stated; settings: protein: recombinant; tags: N-terminal 6xHis (pTrcHisA); label: IRDye700
T3 sequence: T1 sequence with C63R

HIZR-1 S30L = target: T4, HIZR-1 S30L (Caenorhabditis elegans, UniProt G5ED47 1-412, S30L); assay: EMSA; legend: not bound; text: dramatically reduced; faint fast band of unknown significance; Licor Odyssey EMSA Buffer Kit per manufacturer; buffer composition, salt, pH and temperature not stated; settings: protein: recombinant; tags: N-terminal 6xHis (pTrcHisA); label: IRDye700
T4 sequence: T1 sequence with S30L, C63R

HIZR-1 WT [2] = target: T3, HIZR-1 WT; assay: competition; EMSA; 5-5000 nM unlabeled mutant vs labeled HZA; does not compete; Licor Odyssey EMSA Buffer Kit per manufacturer; buffer composition, salt, pH and temperature not stated; settings: protein: recombinant; tags: N-terminal 6xHis (pTrcHisA)

B1: HZA WT, labeled (cdf-2 promoter) (dsDNA)
DNA 1: TGTGTTATCAATCATAAACTAGAACATGTCTCGAG
DNA 2: CTCGAGACATGTTCTAGTTTATGATTGATAACACA
binding result (HIZR-1 R63C): no binding
binding result (HIZR-1 G23E): no binding
Kd (HIZR-1 WT [1]): 20.4 ± 6.8 nM
binding result (HIZR-1 S30L): no binding

B2: Mutant HZA, unlabeled competitor (dsDNA)
DNA 1: TGTGTTATCAGAACATACAACATTAATGTCTCGAG
DNA 2: CTCGAGACATTAATGTTGTATGTTCTGATAACACA
binding result (HIZR-1 WT [2]): no binding
